# Data published in PMC11649929.
# Molecular target: 5*MYC-HSD17B13 (Mouse) (UniProt Q8VCR2)
# Assay: co-immunoprecipitation (IP: MYC) and Western blotting, band intensity
# Details: HEK293T cells transfected with EGFP-Rab2A plasmids and MYC-HSD17B13; parent: 3.3
# Sequence of UniProt Q8VCR2 (Q8VCR2 whole entry): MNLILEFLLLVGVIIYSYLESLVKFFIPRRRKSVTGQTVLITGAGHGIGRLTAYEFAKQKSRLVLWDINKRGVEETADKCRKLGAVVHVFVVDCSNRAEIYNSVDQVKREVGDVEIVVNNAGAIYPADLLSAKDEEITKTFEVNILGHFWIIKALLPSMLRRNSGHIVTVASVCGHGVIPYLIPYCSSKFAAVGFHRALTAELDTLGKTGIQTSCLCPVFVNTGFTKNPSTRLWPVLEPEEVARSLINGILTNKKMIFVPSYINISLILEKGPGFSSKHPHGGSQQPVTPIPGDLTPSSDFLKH
substance,measurement,value
"Rab2A, wild type, expressed from a plasmid in HEK293T cells (tag not told) (from UniProt P53994) Q32...E42-A...A",response,0.9
